Key:
Details in all cases: remark: other sources report otherwise
[1] = target: T1, recombinant soluble homotrimeric HA of A/common magpie/Hong Kong/5052/07 (H5N1) (Influenza A virus A/common magpie/Hong Kong/5052/2007 (H5N1)); test: HA microarray, BCC supernatant
[2] = target: recombinant soluble homotrimeric HA, A/common magpie/Hong Kong/5052/07 (H5N1) (influenza A virus A/common magpie/Hong Kong/5052/2007 (H5N1)); test: microarray, trimeric HA, transfection supernatant
[3] = target: T1, recombinant soluble homotrimeric HA of …; test: HA microarray, control mAb

B1: TCN-535 (5246_P19) (antibody, V domains shown)
VH: QVQLVQSGSEVKKPGTSVKVSCTASGSVFTNYGISWVRQAPGQGLEWMGGIIPLFGAAKYAQKFQGRVTITADESTKTVYMELSRLTSKDTAIYFCAKAPRVYEYYFDQWGQGTPVTVSS
VL: EIVLTQSPGTLSLSPGERATLSCRASQSVSSSQLAWYQQKPGQAPRLIIYGASTRATGIPDRFSGSGSGTDFTLTIGRLEPEDFAVFFCQQYSTSPPTFGQGTKVDFK
In the case of B1, the Trimeric HA Binding RLU [1] is reported as 45900 RLU and the Trimeric HA Binding RLU [2] is reported as 477 RLU.

B2: TCN-537 (3194_D21) (antibody, V domains shown)
VH: QVQLQQWGSGLLKPSETLSLTCAVYGGSFRDDYWTWIRQPPGKGLEWIGEINHSGRTNYNPSLKSRVTISVDTSLKQFSLKVISVTAADTAVYYCARGTSHVSRYFDWLPPTNWFDPWGQGTQVTVSS
VL: DIVLTQSPGTLSLSPGERATLSCRASQSVSSSYLAWYQQKPGQAPRLVMYGAATRATGIPDRFSGSGSGPDFTLTISRLEPEDFAMYYCQQYGNSPITFGQGTRLEIK
B2 showed a Trimeric HA Binding RLU [1] of 18700 RLU and a Trimeric HA Binding RLU [2] of 2070 RLU.

B3: TCN-538 (3206_O17) (antibody, V domains shown)
VH: QITLKESGPTLVKPTQTLTLTCVFSGFSLSITGVRVGWIRQPPGKALEWLALISWDDEKHYSPSLQSRLTITKDTSKNQVVLTMTNLDPVDTATYYCARSTDRGHVLRYFGWMLPGDAFDVWGQGTMVTVSS
VL: DIVMTQSPDFLPVSLGERATINCKSSQRVLYSSNNKNYLAWYQLKPGQPPKLIIYWASTRESGVPDRFSGSGSGTEFTLTISSLQAEDVAVYYCQQYYSRPYTFGQGTKLEIK
Work on B3 yielded a Trimeric HA Binding RLU [1] of 18700 RLU and a Trimeric HA Binding RLU [2] of 3140 RLU.

B4: TCN-540 (5060_F05) (antibody, V domains shown)
VH: QVQLVQSGGGVVQPGRSLRLSCAASGFTFSSYAMHWVRQAPGKGLEWVAIISYDGNDQYYTDSVKGRFTISRDSSKVYLQMHRLRPEDTAVYYCAKEFETSGYFHGSFDYWGQGILVTVSS
VL: QSALTQPASVSGSPGQSITISCTGTSSDVGGYNYVSWYQQHPGKAPKLLIYEVTNWPSGVSNRFSGSKSGNTASLTISGLQAEDEADYYCSSYAGSSTWVFGGGTRVTVL
B4 was tested, and the Trimeric HA Binding RLU [1] was 113 RLU and the Trimeric HA Binding RLU [2] was 1800 RLU.

B5: TCN-543 (5081_G23) (antibody, V domains shown)
VH: QVHLVQSGAEVRKPGDSVKVSCKTSGYTFSTYPVAWVRQVPGQGLEWMGWISTYNGNTNFAQNFQGRVTLTTDTTTNTAYMEVRSLKFDDTAVYYCARVEGSYRDFWNNQNRFDPWGQGTLVTVSS
VL: SYVLTQPPSVSVAPGQTARISCGGSNIGGKSVHWYQQKPGQAPVLVVYDDSGRPSGIPERFSGSNSGDTATLTISRVEAGDEADYFCQVWDNFGGVFGTGTKVTVL
With B5 the Trimeric HA Binding RLU [2] was 1070 RLU.

B6: TCN-545 (5082_I15) (antibody, V domains shown)
VH: QVQLQQWGAGLLKPSETLSLSCAVFGGSFSDYYWTWIRQPPGKGLEWIGEIKHSGRTNYNPSLESRVTISVDTSKNQFSLKLSSVTAADTAIYYCARGTDPDTEGYCRSGSCSAFDFWGQGTLVTVSS
VL: EIVLTQSPGTLSLSPGERATLSCRASHFVNYRSLAWYQQTPGQVPRLLIYGASTRATGIPDRFSGSGSGTDFTLTISRLEPEDFAVYFCQQYGGSPRYTFGQGTRLEIK
B6 showed a Trimeric HA Binding RLU [2] of 1390 RLU.

B7: TCN-546 (5089_L08) (antibody, V domains shown)
VH: QVQLQQWGAGLLKPSETLSLTCGVYGGSLSDYYWSWIRQPPGKGLEWIGEINHSGGTNYNPSLKRRVTISVDTSKKQFSLKMNSVTAADTAVYYCARGTDPDTEVYCRAGNCAAFDFWGQGTLVTVSS
VL: EIVLTQSPGTLSLSPGERATLSCRASHFVIGRAVAWYQQKPGQAPRLLIYGASSRATGIPDRFSGSGSGTDFTLTISRLETEDFAVFYCQHYGSSPRYAFGQGTKLEIK
Binder B7 has a Trimeric HA Binding RLU [2] of 1920 RLU.

B8: TCN-550 (5096_F06) (antibody, V domains shown)
VH: QVQLQESGPGLVKPSETLSLTCTVSGASINSHYWSWIRQPPGKGLEWIGYVYYSGSTTYNPSLKSRVTLSVDTSKNQFSLNLSSVTAADTAFYYCARHPYDVLTGSGDWFDPWGQGTLVTVSS
VL: SYVLTQAPSVSVAPGQTARITCGGNAIGSKKVHWYQHKAGQAPVLVVYDDTDRPSGIPERFSGSNSWSTATLTINRVEAGDEADYYCQVWDFTIDHVVFGGGTKLTVL
Work on B8 yielded a Trimeric HA Binding RLU [2] of 993 RLU.

B9: TCN-552 (5249_I23) (antibody, V domains shown)
VH: QVQVVQSGAEVKKPGSSVRVSCQASGGTFMNYAIIWVRRAPGQGLEWMGGIIPVFPTPNYAQMFQGRVTISTDESRSTSFLELTNLRYEDTAVYYCARRIYHGGNSGFDFWGQGTLVTVSS
VL: EIVLTQSPATLSLSPGERATLSCRASQSVGNYLAWYQQKPGQAPRLLIYDSSNRAPGIPARFSGSGSGTDFTLTISSLAPEDFAVYYCQQRSKWPPMYSFGHGTKLEIK
B9 showed a Trimeric HA Binding RLU [1] of 42200 RLU and a Trimeric HA Binding RLU [2] of 34600 RLU.

B10: TCN-553 (5261_C18) (antibody, V domains shown)
VH: QVQVVQSGTEVKKPGSSVKVSCQTSGGRFMSYAITWVRQAPGQGLEWMGGIVPVFGTANYAQKFQGRVTITTDDSTRTAYMELSSLRSEDTAVYYCGFRYGSGYGFDSWGQGTLVTVSS
VL: EIVLTQSPGTLSLSPGERATLSCRASQSVSSSYLAWYQKKPGQAPRLLIYGASTRATGIPDRFTGSGSGTDFTLSISRLEPEDFAVYYCQHFGTSVFTFGGGTKVEIK
B10 was tested, and the Trimeric HA Binding RLU [1] was 26000 RLU and the Trimeric HA Binding RLU [2] was 39200 RLU.

B11: TCN-555 (5246_L16) (antibody, V domains shown)
VH: QVQLVQSGAEVKRPGSSVKVSCTASGGIFRKNAISWVRQAPGQGLEWMGGIIAVFNTANYAQKFQNRVKITADESGNTAYMELSSLTSDDTAVYYCASHPKYFYGSGSYPDFWGQGTLVTVSS
VL: QSALTQPRSVSGSPGQSITISCTGGSSDIGASNSVSWYQQHPGKAPKLVIFDVTERPSGVPHRFSGSKSGNTASLTVSGLQPDDEADYFCCAYGGKYLVVFGGGTKVTVL
B11 showed a Trimeric HA Binding RLU [1] of 16100 RLU and a Trimeric HA Binding RLU [2] of 33600 RLU.

B12: TCN-557 (5081_A04) (antibody, V domains shown)
VH: QVQLVQSGAEVKKPGASVKVSCKASGHTFTGYYIHWVRQAPGQGLEWMGWINPDSGATSSAQNFQGRVTMTGDTSSSTAYMELSRLSFDDTAVYYCARVLFTSPFDFWGEGTLVTVSS
VL: QAVVTQEPSLAVSPGGTVTLTCGSSTGAVTRGHYPYWFQQKPGQAPRALIYDSAGNRHSWTPARFSGSLLGGKAALTLSGAQPEDEAEYYCLLSYSGVWVFGGGTKLTVL
For B12, the Trimeric HA Binding RLU [2] was 54900 RLU.

B13: TCN-504 (3251_K17) (antibody, V domains shown)
VH: QVQLQESGPGLVKPSETLSLTCAVSGVSISNIDFYWGWIRQPPGKGLEWIGNIYYTGITFYNPSLSSRVAISIDTSKNQFSLTLTSVTAADTAMYYCARHYGDSEAINDAFDIWGQGTMLTVSS
VL: EIVMTQSPATLSVSPGERATLSCRASQSVGNSLAWYQQRPGQAPRLLIYGASTRATGIPPRFSGSGSGTEFTLTISSLQTEDFAVYYCQQYINWRPLSFGGGTKVEIK
Binder B13 has a Trimeric HA Binding RLU [3] of 17000 RLU.

— US20150104459A1
